In US20230383006A1 (ADIENNE S A, published 2023):

What was measured:
[1] = target: T1, Porcine Antigen (purchased from Sigma CAT #D 7052) (porcine, UniProt P22411 38-766, limits assumed); test: Biacore, CDina26 captured by an immobilized polyclonal anti-mouse Ig antibody, Porcine Ag injected in solution
T1 construct: Bought soluble protein; also called porcine CD26; Porcine Antigen (Ag)

[2] = target: Purified recombinant human CD26 (rhDipeptidyl peptidase IV; Creative BioMart; CAT #DPP4-116H) (human, UniProt P27487 29-766); test: SPR (Biacore), 25 C, CDina26 captured on anti-IgG2b CM5 chip, human CD26 as analyte at 30-810 nM
Experimental: Surface Plasmon Resonance system (Biacore®) was used to determine the affinity of CDina26 for human CD26 according to standard protocols. Affinity measurements were taken at 25° C., immobilizing on carboxymethyl dextran chip (CM5) 10.000 RU of an anti-IgG2b antibody (GE Healthcare, 22-0648-97 AC). CDina26 was prepared as stock in HBS-EP (0.01M HEPES, pH 7.4, 0.15M NaCl, 3 mM EDTA, 0.005% Surfactant P20) running buffer in a final concentration of 50 μg/ml, and for each experiment 2.000 RU were reversibly immobilized on the chip by injection with a flow of 10 μl/min in a period of 180 seconds.
Purified recombinant human CD26 (rhDipeptidyl peptidase IV; Creative BioMart; CAT #DPP4-116H) was prepared in a stock concentration of 5.8×10^-6 M. CD26 was injected at increasing concentrations of 30×10⁻⁹, 90×10⁻⁹ M, 270×10⁻⁹ M and 810×10⁻⁹ M. The CD26 samples were injected with a flow of 10μl/minute; with HBS-EP buffer used as running buffer. A typical recording included a 3 minutes period of injection of the CD26 followed by a period of 8 minutes of dissociation. The raw binding data was analyzed according to standard methods. CM5 chip with immobilized anti-IgG2b antibody was regenerated by injection of 10 mM Glycine-HCl pH 1.7 with a flow of injection of 20 μl/min and for a period of 60 seconds.

[3] = target: T2, Matrix 3 discontinuous CLIPS peptides covering residues 226 to 252 of human CD26 (human, peptides fixed on a CLIPS scaffold through thiol side chains of cysteines); test: CLIPS epitope mapping, discontinuous peptides, Matrix 3
T2 construct: A set of peptide constructs from this range; also called protruding loop of CD26
Excerpt: The epitopes recognized by the CDina26 antibody produced by hybridoma cell line deposited as PD 12002 have been identified by CLIPS™ Epitope Mapping technology. See, e.g., U.S. Pat. Nos. 7,863,239 and 7,972,993, the disclosures of which are herein incorporated by reference in their entirety. Briefly, CLIPS™ technology structurally fixes peptides into defined three-dimensional structures. […] The CLIPS™ reaction takes place between bromo groups of the CLIPS™ scaffold and thiol side chains of cysteines. The reaction is fast and specific under mild conditions (Timmerman et al., J. Mol. Recognit. 2007; 20: 283-29).
CLIPS™ library screening starts with the conversion of the human CD26 target protein into a library of overlapping peptide constructs, using a combinatorial matrix design. On a solid carrier, a matrix of linear peptides is synthesized, which are subsequently shaped into spatially defined CLIPS™ constructs. Constructs representing several parts of a discontinuous epitope in the correct conformation bind the antibody with high affinity, which is detected and quantified. […] Affinity information is used in iterative screens to define the sequence and conformation of epitopes in detail.

[4] = target: T3, porcine CD26 expressed on minipig T lymphocytes (porcine (minipig), UniProt P22411 1-766); test: multiparametric flow cytometry on lymphocytes from minipig peripheral blood, CD3 (FL1-H) against CD26/CDina26 (FL2-H)
T3 construct: whole, on cells; Native CD26 on lymphocytes isolated from minipig peripheral blood; also called minipig CD26; Porcine Antigen as a transmembrane protein expressed on T lymphocytes

[5] = target: T4, Human Antigen (purchased from Sigma CAT #D4943) (human, UniProt P27487 29-766, limits assumed); test: Biacore T100, CDina26 captured by immobilized polyclonal anti-mouse Ig antibody, human antigen injected at two concentrations
T4 construct: Bought soluble protein injected in solution in Biacore; also called human CD26; Human Antigen (Ag)
T4 sequence (P27487 29-766 limits assumed): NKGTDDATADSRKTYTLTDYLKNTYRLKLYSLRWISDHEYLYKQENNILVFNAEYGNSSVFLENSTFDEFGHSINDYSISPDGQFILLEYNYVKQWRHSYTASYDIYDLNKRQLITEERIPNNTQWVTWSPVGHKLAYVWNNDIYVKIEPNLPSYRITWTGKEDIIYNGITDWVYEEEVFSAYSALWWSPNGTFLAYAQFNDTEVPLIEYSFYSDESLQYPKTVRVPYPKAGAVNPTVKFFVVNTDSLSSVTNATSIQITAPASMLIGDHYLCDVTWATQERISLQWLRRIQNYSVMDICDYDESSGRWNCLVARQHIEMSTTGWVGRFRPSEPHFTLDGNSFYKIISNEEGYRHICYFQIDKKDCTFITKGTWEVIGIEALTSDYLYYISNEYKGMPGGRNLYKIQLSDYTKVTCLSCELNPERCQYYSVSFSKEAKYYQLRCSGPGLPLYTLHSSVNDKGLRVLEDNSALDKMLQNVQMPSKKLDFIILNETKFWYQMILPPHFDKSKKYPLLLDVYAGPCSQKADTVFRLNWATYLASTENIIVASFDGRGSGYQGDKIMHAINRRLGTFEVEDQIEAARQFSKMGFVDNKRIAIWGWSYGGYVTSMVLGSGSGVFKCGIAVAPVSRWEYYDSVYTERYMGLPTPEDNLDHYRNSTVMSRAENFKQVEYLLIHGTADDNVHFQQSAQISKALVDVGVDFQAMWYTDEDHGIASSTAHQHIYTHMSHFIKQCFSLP

Chain of Purified recombinant human CD26 (rhDipeptidyl peptidase IV; Creative BioMart; CAT #DPP4-116H) (P27487 29-766 limits assumed): as above
T2 sequence (peptide, as listed by the source): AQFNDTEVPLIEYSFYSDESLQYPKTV
T3 sequence (P22411 whole entry): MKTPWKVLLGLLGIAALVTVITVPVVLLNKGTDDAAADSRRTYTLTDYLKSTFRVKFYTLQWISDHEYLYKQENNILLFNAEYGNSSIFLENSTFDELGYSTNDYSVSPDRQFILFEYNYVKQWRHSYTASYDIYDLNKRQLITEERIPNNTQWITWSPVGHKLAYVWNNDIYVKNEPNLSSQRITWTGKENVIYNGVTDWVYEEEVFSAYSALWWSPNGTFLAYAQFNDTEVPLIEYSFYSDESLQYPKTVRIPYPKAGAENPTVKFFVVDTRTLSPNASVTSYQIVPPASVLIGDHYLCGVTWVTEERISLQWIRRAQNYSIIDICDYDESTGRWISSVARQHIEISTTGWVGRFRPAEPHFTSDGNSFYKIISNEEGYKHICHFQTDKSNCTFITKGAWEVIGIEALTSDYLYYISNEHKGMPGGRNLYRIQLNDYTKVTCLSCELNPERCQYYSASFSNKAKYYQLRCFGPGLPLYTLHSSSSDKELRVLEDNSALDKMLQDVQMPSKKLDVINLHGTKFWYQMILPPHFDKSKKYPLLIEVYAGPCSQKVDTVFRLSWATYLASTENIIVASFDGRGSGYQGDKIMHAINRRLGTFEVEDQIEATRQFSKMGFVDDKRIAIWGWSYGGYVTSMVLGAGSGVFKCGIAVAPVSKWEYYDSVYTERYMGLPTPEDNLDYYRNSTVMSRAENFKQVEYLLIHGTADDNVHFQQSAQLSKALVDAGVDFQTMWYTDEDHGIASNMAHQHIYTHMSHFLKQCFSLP
T1 sequence (P22411 38-766 limits assumed): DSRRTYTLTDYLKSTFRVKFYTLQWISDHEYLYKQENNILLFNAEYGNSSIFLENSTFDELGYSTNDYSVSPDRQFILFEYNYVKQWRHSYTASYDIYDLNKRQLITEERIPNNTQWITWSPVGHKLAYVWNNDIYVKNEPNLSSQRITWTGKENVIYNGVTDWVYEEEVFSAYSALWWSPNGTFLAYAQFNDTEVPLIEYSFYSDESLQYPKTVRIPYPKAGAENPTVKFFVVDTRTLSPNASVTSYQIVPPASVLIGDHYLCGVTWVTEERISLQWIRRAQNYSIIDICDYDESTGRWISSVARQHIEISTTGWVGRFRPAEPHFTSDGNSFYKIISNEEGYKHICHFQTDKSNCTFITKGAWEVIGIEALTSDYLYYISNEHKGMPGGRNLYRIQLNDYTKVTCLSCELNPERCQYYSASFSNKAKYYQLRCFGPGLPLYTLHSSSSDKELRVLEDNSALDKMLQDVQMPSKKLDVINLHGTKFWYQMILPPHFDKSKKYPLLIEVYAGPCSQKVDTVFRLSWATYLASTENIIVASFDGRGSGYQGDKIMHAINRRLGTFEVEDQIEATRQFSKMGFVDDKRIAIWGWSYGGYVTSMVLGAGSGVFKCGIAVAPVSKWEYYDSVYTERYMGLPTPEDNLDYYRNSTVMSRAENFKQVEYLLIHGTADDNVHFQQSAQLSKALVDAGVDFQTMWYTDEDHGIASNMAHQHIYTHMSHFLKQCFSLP

B1: CDina26 (antibody, mouse IgG2b, kappa, V domains shown)
VH: QVQLQQSGAELVKPGASVKLSCKASGYTFRSYDINWVRQRPEQGLEWIGWIFPGDGSTKYNEKFKGKATLTTDKSSSTAYMQLSRLTSEDSAVYFCARWTVVGPGYFDVWGAGTTVTVSS
VL: QIVLTQSPAIMSASPGEKVTITCSASSSVSYMNWFQQKPGTSPKLWIYSTSNLASGVPARFSGSGSGTSYSLTISRMEAEDAATYYCQQRSSYPNTFGGGTKLEIKR
notes: also called antibodies produced by the PD 12002 hybridoma cell line deposit; murine monoclonal antibody against CD26
binding result [1]: no binding | Kd [2]: 5.02 nM | koff [2]: 0.000132 s⁻¹ | kon [2]: 26300 M⁻¹ s⁻¹ | binding result [3]: no binding | binding result [4]: no binding | koff [5]: 2.8e-05 s⁻¹
